Data: the domain aggregation screens of Martell et al. (2025)

Test: soluble fraction after stress (log2 fold change); higher = more stays soluble; pooled small domains, quantitative proteomics
Settings: stress: 75 degC
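Note: 20 min heating vs room temperature control held 20 min.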

Sequence | soluble fraction (log2)
HMSDVLPEAILERRLVKKGNRAVPQVLIKWTKLPATSATWEDFYVLQQRFPTALAWGQAPSPGGQM | -0.462
HMSDVTPDVVRALRKRLKLTQVQFGEIFGMTSKKVSAWEHGKAEPTEEQKQKIQSLLKENNEQ | -0.146
HMSEATTVNYKYAVTISDLRIRKGPGTNYGSVGYTGKGVFTIVAEKGGWGKLKSGAGWISLNSKYGHKVS | -2.03
HMSEEAMVSNFRQQEILELARKDGKVTVDGLAELYDVTVQTIRRDLSDLADSGRLKRVHGGAVVPS | 0.162
HMSEFGENLKKLRTARDLTQQELGAKVGLSKAVVSKYENGLGYPTFDVLIRIAAYFGVTTDYLLGV | -2.81
HMSEFSDRFRLLKDESGATLKELSEQLDITVPNLSYYMKGREPSYDILIKIADYFGVTTDWLIGRTDER | -1.18
HMSEILQLINKIDKKLEKGYTFANISRNHYEKIYKEEILNLYKTSKLKGEAEDSIKEVLESLLGDLRKP | -0.833
HMSEISAEAGKRIRYFRKSRSMTLEELAAVIHKSKATLSKYETGEISIDLDTLYDLAVALQVRAEQLLPAS | -4.35
HMSEITMMQMEIPEGHNWENRLVKDVSMPTGSLAVMIKRHGETLIPGGDTRILAGDTIVLSVPAYESG | -0.112
HMSEIYVDDINRKILYLLSQGIKTKSLLEHIPLSMSGIEKRKKQLKMLFSVEDGKDETLLEMAKEKGF | -2
HMSEKAQSENEDLIKILALLIHAAKIDENYSEKEKKLIISFAEMSSNKKLDREQINSLVDKAEQYEK | -0.532
HMSEKLLTLNEISEKLRVSRHTVQAWVSPSSPNHRPEFSSLARHAGRKTVFLESDVDAWLAQRR | -1.07
HMSEKYPPIDWNNIKTGQSVLIKDINQVVSLTKLPDSKGFAEVQMGLIKTKIKAEKLAATDKKPNK | -0.326
HMSELDSYIGARLRMRRLMLGMSQEALGEKLSLTFQQIQKYEKGTNRVSASRLYELAQVLDVPVQFFFDGA | -2.98
HMSENDTILAKFASIINNKSLELVIFPDTAYLKGQVSTPEDKARAETVAQSLLGSKPLISLIEFE | -0.386
HMSENPLTSREIEIVQLLANGKTTKSIAEELHLSNGTIRNYVSIVLDKLNVSNRIEAIRKALDKGWL | -1.81
HMSEPQEISYSDFIEQVNRNEIRQVEFDGQHEYLTVIRKDTSRFKVIIPAPDPRLLDDLMEHDVEIVGKE | -0.123
HMSEQYEQIQLALKTLTQDEQDIVRLVVVEGASLRTAGKNLGVSAMTIQRRLKRALARLRDLLAS | -0.839
HMSESKYKMIKNWIKSKILDGTLVPNQKIYSESELMEIFDVSRHTVRLAIGELVSEGYLFKRQGTGTFVTQ | -2.82
HMSETTSRVLQLLGLLQARRVWTGQELADRLGVTGRSVRRDIERLRDLGYPVHASKGRDGGYQLGA | -1.61
HMSEYILATNDGEFLRITSYSKEEGGMLVWEKTSSIVSAEHKVIPYSQIINIKDRNGDVVWDKD | -0.988
HMSEYNPGIYRVTDPALNIRTGPGVEYPVVGVIKDQGSYTITEIRNKSWGRLLSGAGSTAIKHIVFT | 0.214
HMSFEITGDELILRFVKDKGGATTEQIRKHWEASNRGGKSDNNLTNLVKSGKLLRSKDPNGPGSLYTAS | -0.0632
HMSFESMGLTPRQADVLTLLLQGKSNKDIARRLVLSVETVKDHVQAVLRALGVSSRTQAVLAVGQMTQQ | -0.584
HMSFGYFQLRAKDPQKLKSVLEKIPQIQSIKEEKGDLIGYLNADMEAEELSQKLAAAKIFVTHMAKKK | -0.583
HMSFISRMVVAVEDIALSTRPNSTPSGDKYVSKGTVLLMEKRENDWVEVRQPSSPLSGWAPKTSLLSV | -0.246

Sequence | soluble fraction (log2)
HMSFNLSETKKLILEEIQKGVSSVTQIAATAGISKGMTYNHLRELKLMGYIADGDSGYVITDAGKIAS | -0.448
HMSFRYLHVKRQLMSLIGTMNAHERLPSRTDLSETFQVARTTIERAISELIGEGWLYARDGSGTYVAER | -3.45
HMSFSTHHEYYIYNLAVDMRKGYDGLSGLVVNELGRQPWDGSVYVFFNTMRDKVKLLVWDTDGYVIYSKR | -0.279
HMSFTDLILKSANAIDEMGGIWENGKQILGEKAIAIHEEIVDNGLNPDKDGFYKLANGQMIQYG | 0.0518
HMSFVEVTVSELKNYVNSHARIKLKSGKEFKGFILDANEEGVIIKVQLRGGTAESTISYNRIDRAAVF | -4.01
HMSGAERAAALLVALGPEVASEIMKFLDDESIQKLASEIAKIEVLSPQEKEDLIGQFLLELKKT | -0.419
HMSGAWEVGLLRQFTDWMGTQYNAYAGRNFDAITVAQVAEKNPELLTPFVESFFKERVEPALAAG | -1.08
HMSGEDYLERILMLKEKHGNVRAIDIANSMNFSKPSVSIALHKLSENGYVVIQNNGAIELTEKGLEVAT | -0.455
HMSGEIPFPPAFKPSADHIAIASEKGINIETELLNFRDYHQARGTKLIDWNSAFRVWLRNAR | -0.531
HMSGEITVPNLIGVEAIQAKTLLIQAGFLIKEFYDLDSTQPAGVVIRQAPEAGTTQTIGKSVTITINKQ | -1.25
HMSGENAVLTEGTMVTVRRGGETITATARKETVKQFLSRMDIIPGSREMVGIELMENSVMLTISD | -0.889
HMSGFPTDAQIVREIRNILPTLENPTPRMVRKALENTFEVDMGESKTKKYINNIIITEYEKWSSVQSIRE | -0.603
HMSGGNTSAFKGKLNYEYRGNDTIITGSTYPVKELIKKAGGRWDPGSSAWIIKGRHVSDNEIF | 0.054
HMSGQKDVPDLYGMTVKQAKKEVEAAGFKLKEGKEVYSNDYSKGQIAEQDPESGSKAKKGSSITVHVSKG | 0.0162
HMSGRIWTDNYGRTIEADVIKVNINRTVLLEFTDKKTKTVSFDTFISKDIQYLEYLLTRRNRGKL | -3.98
HMSGRVPTADDIAVGMKVYVPRLGGTGTVVTEPVRDKVVIQVGSLRLHAEVAELLLPDEHGRIQVPR | -0.844
HMSGTGSYVALLRDPQGNVGKVVVKGSKGEQVLSQPQQAARLDGATPSYEVTGRQIAEDFGRALAV | 0.144
HMSGTYIATVEAGSLDIYKSMTSNETIGKASRGDVFQILEDMGSGYARVSYNDVEGYMSIKTGDASIEEL | 0.113
HMSGVSESIEKKIQYLLLEKPLPLHDLIEAIEIGKEEDRLKVLRSLMDSDTVKIEDDLYHWNA | -0.133
HMSGYSTLFTRMSREDAQAVVSLLQDDGIEYRYNDDTGTVQVPSATVDQTRAKLVSAGYPRS | -0.268
HMSHANAALTPRARLRLAKLIVEEHWPVATAAKMFMVSPPTARKWATRFRAEGPAGMADRSSRP | -1.63
HMSHFRMLPSITEADAFLKSRSLPAGLEVREQVDAFLAQARQTLALAQEAPWLSKQEVLETLADEFVQTS | -0.652
HMSHFSERLKSLRQQSSITQAKLADDLNVTKSLISMYESGQRLPSFEMLETIADYFNVPLSSLV | -0.541
HMSHGFFTLQSDDLNLLRTVLEGHSSIGDIKIEGIQLVAYLKEPLNGAELNKILFEKGINLSYLVHRK | -2.9
HMSHGFVHLKGAVQHPGIYPVKENTRWDEVVKAAGGLTAAADIQQVNLAKVASDQESLYVPEKGET | 0.149
HMSHGSIYFSGKTGLKGSVDINGTVNSINKKIFLKPGNYNFLIKADGYKNLKGSFQISKGDKKFVELVLIP | -2.1

Sequence | soluble fraction (log2)
HMSHGYVELKAENNDALISALENHTWFENIKLDPETNLVKAILTKPIEAENLNKMLFEKGIILSHLVKRK | -0.376
HMSHYDILEVDPKASATEIKQSFRKKSLQYHPDRNKSSDAHEYMTKITEAYNILGDKDKRRHYDMELKL | 0.568
HMSHYEYKVGDRVNLLDYDDFGILYKEKDNFYNVVVYYNGEFVEVNVKRITLEVAAKELYPEGYDLSTLFV | -3.97
HMSIASASVKEKIRDIVSSEPPQKPFSDAKIAEILAEDGIAIARRTVAKYREEIGIPTKSLRKR | -0.0706
HMSIDNALLTLIGKTGTAQTVLRPSGKVVIGDEVYDAVTAGEFIDKGSAIVVTRVEATQLYVEASEA | -0.411
HMSIELEISADGNNYRVSGLSDGEDVRVYSVSGVQVFSGKAQGGEVVIPADNWNKGIYVISAGGSSVKVL | -0.594
HMSIGLEDLIEQKGVADTDLRPSGWINVGNQRIFVVTEGSYIDQNDNVIILSVDGNRVVVRKI | -1.2
HMSIGLEELVGSHGEAITDLRPAGQVSIAARRISAVSEGDFINKGDSVEVLSVEGYRVMVRKLET | -0.34
HMSIITLFQEINAAVAEATGGRVPESVVQNFILGKDVVIPEDVKEIIISKLKAFATDIEGMLEESGFD | -2.62
HMSILDEAEFKKIESALLDFITNNIFTVKELLQASRGIKQDKFWKVFQFLQSERKVVVNELGYIEL | -0.287
HMSILSIGLERGMKKGVAWGIAKSILDILEETGPVSEKTREMIVTETDAERLSAWVKKAARSNSEEDFLSK | -0.799
HMSILSRREHEIMQWVKGGKTNIEIAQILGISARTVRNHLQNVFRKLDVINRAQAVFEVERRR | -2.68
HMSIMNEQIREILNQQVTKTSKIQQLLLLGLTRRQVADLVTNGNYGFVQNVYRNMLDAGIFTP | -1.13
HMSIMNLSEKIVVLRKSNGMSQEELAEKLYVSRQAVSRWEMGTAVPDSTNILQLGKLFHVTTDYLLNDEYE | -3.36
HMSINQIADKGYITRLIDNNANIKDVLYYDASSRILAIEDPKYMFYLKNTDWNQFAKEMGFKLE | -0.794
HMSINTLEVHSLKALENLAESPLLISFSYENEEYNYRLASSDVSLLKKISSNYSDDSDIKGLRFIS | -0.893
HMSIQQEATGNRIRELLLNNGYTVKDIQEVMGFENPQAVYKWLSGKSLPNLDNLLILSKVLHTSIEDILV | -1.09
HMSISSIDFENLKSDELSDAQITQIYRQAQEQGLSIDELSSLAIARGMSPTEVAKLRSRFNSIP | 0.0936
HMSIVVPDLRGKTLEEARAILKEADLDFEINDSTFSKTARPGTIRDVVPSPGSRVKAGRILFISINGF | -0.781
HMSIYQYFNISEINSIDDLKKQYFKLAKKYHPDAGGDKVSFQELQNEYEQLTKKILSGAELNADELKTE | -0.126
HMSKASLFFLFNHKDELYIVDNNHVQDVPKPRELIRRFSTIEQIREHALHLGLPIANDTARE | -3.31
HMSKEGLASLLEDINGLGAIRRKTLIDHFGSVAKIRGARPEEIAALPGMGRKIAEHILASLRED | -0.541
HMSKEKQILQLLQHGYSQRRIADTLSVSRNTVAKVAKAAIEHPVSSDSLDSIDELELHQKLFPEEVLI | -0.486
HMSKGKNEVIAYLKAHNDHRLTVAEILDGLKEEGISINRSTIYRNLDKLVENGDILAFKGKDSESAFYQYS | 0.0611
HMSKHLWNKVLPKVTTANITNLINQAIRKGEWRMDNKGVVHIIWRYRGKIIEVTGYLKDKVFNVGNAWVR | 0.226
